Results published in patent US20190276499A1, “Protein VII Fragments and Methods of Use Thereof for the Treatment of Inflammatory Disorders” (priority 2016, published 2019).

Assays:
LPS induced lung injury = assay: Murine model of LPS induced lung injury, BAL fluid analysis; assay type: in vivo, mouse; conditions: 24 hours after LPS exposure, versus mice expressing GFP
Description: All mice were housed in SPF conditions. All studies in mice were carried out in accordance with the recommendations in the Guide for the Care and Use of Laboratory Animals of the National Institutes of Health. C57BL/6J male mice aged 8-10 weeks were used for experiments. Mice were sedated with ketamine and xylazine. Once sedated, mice underwent orotrachial intubation, as described (Das et al. (2013) J. Vis. Exp., (73):e50318), with a 20G angiocatheter from BD (Franklin Lakes, N.J.). Mice subsequently received 5e10 GC of recombinant adenovirus expressing VII-GFP or GFP purified as described above. Four days after infection, mice were exposed to aerosolized LPS, 3 mg/mL for 30 minutes as described (Jeyaseelan et al. (2004) Infect. Immun., 72:7247-7256). One day after LPS exposure, BAL, and lung tissue were harvested as detailed (Nick et al. (2000) J. Immunol., 164:2151-2159) and examined for HMGB1 content (ELISA, Chondrex 6010) and neutrophil count (hematoxylin and eosin stain kit EMD 65044/93). Immunostaining was carried out using standard methods. A minimum of four biological replicates were used for each condition studied. Mice were assigned a random number and color at the start of the experiment and were randomized. Technicians carrying out the experiments were blinded to the identity of the samples. Tissue samples were assigned a random study number such that the technician performing the analysis was blinded. Unblinding for the purpose of data analysis occurred only after all data had been collected.

[1] = test system: HMGB1 domains (A box, B box, acidic tail); assay: Immunofluorescence of HMGB1-GFP domain constructs upon protein VII-HA expression; assay type: cell-based; conditions: A549 cells, 2 days after transfection
Description: Cells were grown on glass coverslips in 24-well plates and either infected or induced with doxycycline (0.2 μg/mL). Cells were harvested for immunofluorescence at the indicated time points, washed in phosphate-buffered saline (PBS), fixed in 4% paraformaldehyde for 15 minutes and post-fixed with 100% ice-cold methanol for 5 minutes. Coverslips were then blocked and stained as described (Lilley et al. (2011) PLoS Pathog., 7:e1002084) and mounted using ProLong Gold Antifade Reagent (Life Technologies). Immunofluorescence was visualized using a Zeiss LSM Confocal microscope and ZEN 2011 software. Images were processed using ImageJ and assembled with Adobe CS6. All scale bars show in the Figures are 10 μm unless otherwise stated.
FIG. 8A provides a schematic of the different GFP constructs expressing distinct HMGB1 domains. […] Immunofluorescence of the HMGB1-GFP constructs 2 days after transfection of A549s cells under control conditions or upon expression of Ad5 protein VII-HA is shown in FIG. 8B. […] Only full-length HMGB1 and the HMGB1 A box are relocalized upon expression of protein VII. […] Next we tested the immobilization of this construct in chromatin upon protein VII expression.

[2] = molecular target: T1, HMGB1 full-length and domains (Homo sapiens, UniProt P09429); assay: In vitro GST pull down of recombinant GST-HMGB1 constructs with protein VII; assay type: binding
T1 construct: recombinant GST constructs encoding full-length HMGB1 or distinct HMGB1 domains
T1 sequence (P09429 1-215): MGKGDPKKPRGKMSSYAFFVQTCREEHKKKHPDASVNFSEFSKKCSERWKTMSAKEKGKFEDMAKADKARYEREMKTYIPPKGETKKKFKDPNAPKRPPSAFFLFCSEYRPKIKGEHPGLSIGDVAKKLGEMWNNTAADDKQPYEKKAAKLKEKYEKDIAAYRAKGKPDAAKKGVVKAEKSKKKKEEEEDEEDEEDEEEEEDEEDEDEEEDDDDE

[3] = test system: HMGB1 full-length and domains; assay: as above; assay type: binding
cellular chromatin = assay: Chromatin appearance in inducible cell lines (immunofluorescence, DAPI); assay type: cell-based; conditions: inducible expression
Description: Primary small airway epithelial cells (SAECs), U2OS, HeLa, 293, THP-1 and A549 cells were obtained from the American Tissue Culture Collection (ATCC) and grown according to the provider's instructions. Acceptor cells for generation of inducible cell lines were used as reported (Khandelia et al. (2011) Proc. Natl. Acad. Sci., 108:12799-12804). Protein VII, preVII and V were cloned from genomic DNA isolated from HeLa cells infected with adenovirus type 5 and inserted into the inducible plasmid cassette with a C-terminal HA tag using restriction enzymes BsrGI and AgeI. Positive clones were selected in DH5a cells, sequenced, and transfected into A549, U2OS or HeLa acceptor cells along with plasmid expressing the Cre recombinase. Recombined clones were selected by puromycin resistance (1 μg/mL) and induced with doxycycline (0.2 μg/mL) to express the desired protein. Protein expression was verified by immunofluorescence and western blot. All figures shown are after 4 days of induction unless otherwise stated. Protein VII and preVII were also verified by HPLC purification and mass spectrometry analysis. Point mutations were generated by gene synthesis from Genewiz.
Cells were grown on glass coverslips in 24-well plates and either infected or induced with doxycycline (0.2 μg/mL). […]

HMGB1 = molecular target: T2, HMGB1 (Homo sapiens, UniProt P09429); assay: Co-immunoprecipitation of HMGB1 with protein VII-HA in A549 cells; assay type: cell-based; parameters: endogenous in cells; host or cells: A549; conditions: A549 cells induced 4 days
T2 sequence (P09429 1-215): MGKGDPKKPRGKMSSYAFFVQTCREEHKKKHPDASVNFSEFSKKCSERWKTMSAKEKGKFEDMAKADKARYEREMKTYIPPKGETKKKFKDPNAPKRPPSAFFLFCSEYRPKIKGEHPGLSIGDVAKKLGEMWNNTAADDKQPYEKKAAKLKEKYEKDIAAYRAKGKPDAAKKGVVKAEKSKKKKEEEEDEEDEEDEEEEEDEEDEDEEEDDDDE
Description: A549 cells were induced to express protein VII with doxycycline for four days as described above. Approximately 4×10^7 cells were harvested and pelleted for each immunoprecipitation reaction. Cell pellets were resuspended in 500 μl of IC wash buffer with protease inhibitors (20 mM HEPES pH 7.9, 110 mM KOAc, 2 mM MgCl2, 150 mM NaCl, 0.1% Tween-20, 0.1% Triton X) and incubated on ice for 10 minutes with intermittent vortexing to disrupt cells. Samples were then incubated on ice for 1 hour with 5 μl of benzonase (Millipore) added to each sample to digest DNA to ˜150 bp, which was confirmed by DNA isolation and agarose gel analysis. Samples were then sonicated in a Diagenode Bioruptre for 30 seconds on and 30 seconds off for five rounds at 4° C. and centrifuged at 14,000 g for 15 minutes at 4° C. Supernatants were then incubated rotating for 1 hour at 4° C. with 30 μl of HA-conjugated magnetic beads (Thermo Scientific) and washed three times for five minutes in IC buffer. Isolated proteins were eluted with 100 μl of 2 mg/ml HA peptide (Thermo Scientific) for 20 minutes rotating at 37° C. and separated on and SDS-PAGE gel. For protein separation by SDS-PAGE the NuPAGE IDE System was used (NuPAGE Novex 4-12% bis-tris 1.0 mm gels, Invitrogen, USA). Uninduced cells were used as a negative control. […]

B1: protein VII: mature protein VII of human adenovirus type 5 (SEQ ID NO:1), expressed in cells, mostly with C-terminal HA tag (protein)
chain: AKKRSDQHPVRVRGHYRAPWGAHKRGRTGRTTVDDAIDAVVEEARNYTPTPPPVSTVDAAIQTVVRGARRYAKMKRRRRRVARRHRRRPGTAAQRAAAALLNRARRTGRRAAMRAARRLAAGIVTVPPRSRRRAAAAAAAAISAMTQGRRGNVYWVRDSVSGLRVPVRTRPPRN
modifications: C-terminal HA tag; Human adenovirus 5
LPS induced lung injury
  HMGB1 in BAL fluid: significantly less HMGB1
  Neutrophils in BAL fluid: fewer neutrophils
[1]
  Relocalization of HMGB1 A box: relocalizes
[2]
  Pull-down by full-length HMGB1 construct in vitro: able to also pull-down protein VII
[3]
  Binding to HMGB1 acidic tail (C-terminus) in vitro: binds
Cellular chromatin
  Effect on chromatin appearance: altered nuclear DNA into a punctate appearance
HMGB1
  HMGB1 co-immunoprecipitation with protein VII: confirmed
